Results published in article PMC8336959 (Science Advances, 2021).
Square brackets hold non-standard residues; d marks the D form. Ends that are not written are not given here. pY = N[C@@H](Cc1ccc(OP(=O)(O)O)cc1)C(=O)O; pS = N[C@@H](COP(=O)(O)O)C(=O)O

B1: RPA70 N-terminal OB1 domain (RPA70N, residues 1 to 120), Atto488-labeled (domain or fragment)
chain: MVGQLSEGAIAAIMQKGDTNIKPILQVINIRPITTGNSPPRYRLLMSDGLNTLSSFMLATQLNPLVEEEQLSSNCVCQIHRFIVNTLKDGRRVVILMELEVLKSAEAVGVKIGNPVPYNE
modifications: Atto488 label

Assays:
Experiment in all cases: MST
[1] = molecular target: GRB2, wild type, bacterially expressed and purified (UniProt P62993 1-217)
Chain of GRB2, wild type, bacterially expressed and purified (P62993 whole entry, the tested form may be a part): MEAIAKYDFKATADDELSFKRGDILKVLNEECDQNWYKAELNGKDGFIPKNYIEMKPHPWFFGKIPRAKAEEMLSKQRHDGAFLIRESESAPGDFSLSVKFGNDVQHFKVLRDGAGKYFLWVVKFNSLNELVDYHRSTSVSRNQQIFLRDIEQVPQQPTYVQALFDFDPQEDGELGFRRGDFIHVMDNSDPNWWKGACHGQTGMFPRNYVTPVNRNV

[2] = molecular target: Atto488-labeled GRB2-SH2 domain (UniProt P62993 60-152, Atto488 label)
Chain of Atto488-labeled GRB2-SH2 domain (P62993 60-152): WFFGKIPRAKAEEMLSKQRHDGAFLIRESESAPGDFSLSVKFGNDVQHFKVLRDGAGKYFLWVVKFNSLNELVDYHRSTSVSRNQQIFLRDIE

[3] = molecular target: B1

Binder | binding result [1] | Kd [2] [µM] | further results
B1 | binds |  | 
PWVN[pY]QDGNLN [Tyrosine-phosphorylated MRE11 peptide] | binds |  | 
FLPVPE[pY]INQSVPKR [Phosphorylated EGFR synthetic peptide] |  | 7.2 ± 2 | 
PSGGKKATQA[pS]QE[pY] [Dual-phosphorylated H2AX (pH2AX) peptide] | binds |  | 
PWVNYQDGNLN [MRE11 peptide] |  | 33 ± 15 | 
KYDFKATADDELSFKRG [GRB2 OB1 peptide] |  |  | binding result [3]: binds
